Measurements: the supplement of paper PMC9112550, “Optimization of the antimicrobial peptide Bac7 by deep mutational scanning” (BMC Biology, 2022)

system: Escherichia coli TOP10; test: shrunken log2 fold change of peptide-encoding DNA abundance (4.5 h post-induction vs induction); higher = less antimicrobial activity (less host growth inhibition); conditions: time post-induction: 4.5 h; library: site-saturation at positions 5, 18, 19, 20
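Also: peptides expressed intracellularly from a pBAD plasmid library in pooled LB shake-flask culture, induced with 0.3% L-arabinose, DNA abundance read by NGS, three biological replicates, DESeq2 with apeglm shrinkage.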

| Sequence | shrunken log2 fold change |
| --- | --- |
| RRIRHRPPRLPRPRPRPVENPRP | -0.0355 |
| RRIRVRPPRLPRPRPRPYCDPRP | -0.348 |
| RRIRMRPPRLPRPRPRPLERPRP | 0.00972 |
| RRIRSRPPRLPRPRPRPDECPRP | 0.0932 |
| RRIRERPPRLPRPRPRPDTHPRP | -0.532 |
| RRIRNRPPRLPRPRPRPWTEPRP | -0.249 |
| RRIRKRPPRLPRPRPRPQERPRP | -0.0146 |
| RRIRIRPPRLPRPRPRPDYLPRP | -0.0127 |
| RRIRCRPPRLPRPRPRPLGSPRP | -0.423 |
| RRIRLRPPRLPRPRPRPWVYPRP | 0.0113 |
| RRIRFRPPRLPRPRPRPLLSPRP | 0.0127 |
| RRIRNRPPRLPRPRPRPTYAPRP | 0.027 |
| RRIRVRPPRLPRPRPRPNYEPRP | -0.0505 |
| RRIRWRPPRLPRPRPRPDTGPRP | -0.373 |
| RRIRTRPPRLPRPRPRPDDFPRP | 0.0516 |
| RRIRARPPRLPRPRPRPFKIPRP | -0.0575 |
| RRIRPRPPRLPRPRPRPEDKPRP | 0.163 |
| RRIRQRPPRLPRPRPRPYYIPRP | -0.657 |
| RRIRQRPPRLPRPRPRPGYQPRP | -0.164 |
| RRIRIRPPRLPRPRPRPGKQPRP | -0.0943 |
| RRIRDRPPRLPRPRPRPWTAPRP | -0.0482 |
| RRIRLRPPRLPRPRPRPQDEPRP | 0.119 |
| RRIRHRPPRLPRPRPRPRNQPRP | 0.0527 |
| RRIRLRPPRLPRPRPRPFDWPRP | -0.133 |
| RRIRFRPPRLPRPRPRPEIVPRP | -0.0888 |

| Sequence | shrunken log2 fold change |
| --- | --- |
| RRIRHRPPRLPRPRPRPFYEPRP | -0.108 |
| RRIRHRPPRLPRPRPRPVDTPRP | -0.508 |
| RRIRYRPPRLPRPRPRPSNWPRP | -0.385 |
| RRIRVRPPRLPRPRPRPTMQPRP | 0.158 |
| RRIRPRPPRLPRPRPRPVCQPRP | -0.1 |
| RRIRERPPRLPRPRPRPHGRPRP | 0.0279 |
| RRIRFRPPRLPRPRPRPKMWPRP | 0.348 |
| RRIRLRPPRLPRPRPRPSPQPRP | 0.362 |
| RRIRIRPPRLPRPRPRPVRGPRP | 0.413 |
| RRIRTRPPRLPRPRPRPFLGPRP | -0.0873 |
| RRIRFRPPRLPRPRPRPCMAPRP | -0.594 |
| RRIRERPPRLPRPRPRPEFQPRP | -0.0353 |
| RRIRFRPPRLPRPRPRPQICPRP | -0.135 |
| RRIRTRPPRLPRPRPRPRVYPRP | -0.454 |
| RRIRVRPPRLPRPRPRPFPPPRP | -0.0462 |
| RRIRHRPPRLPRPRPRPIDKPRP | 0.0156 |
| RRIRFRPPRLPRPRPRPCRMPRP | -0.168 |
| RRIRFRPPRLPRPRPRPKIKPRP | -0.431 |
| RRIRCRPPRLPRPRPRPQIIPRP | -0.853 |
| RRIRYRPPRLPRPRPRPCSKPRP | -0.012 |
| RRIRQRPPRLPRPRPRPRKWPRP | 0.832 |
| RRIRPRPPRLPRPRPRPKRLPRP | 0.285 |
| RRIRGRPPRLPRPRPRPYSKPRP | -0.2 |
| RRIRRRPPRLPRPRPRPTWHPRP | 0.429 |
| RRIRMRPPRLPRPRPRPTVHPRP | 0.102 |

| Sequence | shrunken log2 fold change |
| --- | --- |
| RRIRARPPRLPRPRPRPMENPRP | 0.423 |
| RRIRMRPPRLPRPRPRPRASPRP | 1.08 |
| RRIRHRPPRLPRPRPRPAAAPRP | 0.443 |
| RRIRERPPRLPRPRPRPYWGPRP | -0.346 |
| RRIRMRPPRLPRPRPRPPTTPRP | 0.991 |
| RRIRTRPPRLPRPRPRPRELPRP | 0.267 |
| RRIRARPPRLPRPRPRPLMFPRP | 0.187 |
| RRIRKRPPRLPRPRPRPLLAPRP | 0.833 |
| RRIRHRPPRLPRPRPRPENRPRP | 0.019 |
| RRIRSRPPRLPRPRPRPFCNPRP | -0.106 |
| RRIRHRPPRLPRPRPRPGLVPRP | 0.0437 |
| RRIRLRPPRLPRPRPRPNHIPRP | -0.671 |
| RRIRARPPRLPRPRPRPAAEPRP | 1.6 |
| RRIRCRPPRLPRPRPRPCEIPRP | 0.0656 |
| RRIRQRPPRLPRPRPRPNFDPRP | -0.347 |
| RRIRGRPPRLPRPRPRPPRIPRP | 0.719 |
| RRIRKRPPRLPRPRPRPVITPRP | -0.249 |
| RRIRKRPPRLPRPRPRPRSDPRP | 0.197 |
| RRIRQRPPRLPRPRPRPFIGPRP | -0.281 |
| RRIRYRPPRLPRPRPRPAINPRP | -0.051 |
| RRIRFRPPRLPRPRPRPQDFPRP | -0.143 |
| RRIRKRPPRLPRPRPRPELLPRP | 0.394 |
| RRIRERPPRLPRPRPRPRLLPRP | -0.335 |
| RRIRYRPPRLPRPRPRPAKFPRP | -0.331 |
| RRIRNRPPRLPRPRPRPCWFPRP | -0.00192 |

| Sequence | shrunken log2 fold change |
| --- | --- |
| RRIRVRPPRLPRPRPRPGLEPRP | 0.0118 |
| RRIRKRPPRLPRPRPRPPEDPRP | 3.39 |
| RRIRMRPPRLPRPRPRPALIPRP | 0.136 |
| RRIRARPPRLPRPRPRPLKEPRP | 0.218 |
| RRIRLRPPRLPRPRPRPAFRPRP | 0.0862 |
| RRIRYRPPRLPRPRPRPAPQPRP | 0.416 |
| RRIRTRPPRLPRPRPRPHSYPRP | -1.23 |
| RRIRRRPPRLPRPRPRPVLWPRP | 0.886 |
| RRIRTRPPRLPRPRPRPPRNPRP | 1.27 |
| RRIRPRPPRLPRPRPRPPETPRP | 0.407 |
| RRIRLRPPRLPRPRPRPHSFPRP | 0.0434 |
| RRIRKRPPRLPRPRPRPHESPRP | 0.23 |
| RRIRYRPPRLPRPRPRPLRYPRP | -0.426 |
| RRIRVRPPRLPRPRPRPQGQPRP | 0.00581 |
| RRIRYRPPRLPRPRPRPILLPRP | -0.322 |
| RRIRRRPPRLPRPRPRPWGSPRP | -0.186 |
| RRIRLRPPRLPRPRPRPITNPRP | -0.391 |
| RRIRPRPPRLPRPRPRPVLHPRP | -0.1 |
| RRIRFRPPRLPRPRPRPCWNPRP | 0.151 |
| RRIRFRPPRLPRPRPRPSHDPRP | -0.142 |
| RRIRWRPPRLPRPRPRPYMIPRP | -1.02 |
| RRIRSRPPRLPRPRPRPINFPRP | -0.168 |
| RRIRPRPPRLPRPRPRPGVRPRP | 0.116 |
| RRIRARPPRLPRPRPRPLIIPRP | -0.415 |
| RRIRRRPPRLPRPRPRPAMRPRP | 0.538 |

| Sequence | shrunken log2 fold change |
| --- | --- |
| RRIRNRPPRLPRPRPRPVMCPRP | -0.0207 |
| RRIRPRPPRLPRPRPRPAADPRP | 0.282 |
| RRIRQRPPRLPRPRPRPRRCPRP | 0.271 |
| RRIRTRPPRLPRPRPRPAMWPRP | 0.35 |
| RRIRFRPPRLPRPRPRPDGIPRP | -0.255 |
| RRIRARPPRLPRPRPRPLCIPRP | -0.143 |
| RRIRTRPPRLPRPRPRPNTLPRP | -0.377 |
| RRIRDRPPRLPRPRPRPLHDPRP | -0.0658 |
| RRIRWRPPRLPRPRPRPCQCPRP | -0.000687 |
| RRIRDRPPRLPRPRPRPSQFPRP | -0.181 |
| RRIRGRPPRLPRPRPRPPITPRP | 0.0357 |
| RRIRFRPPRLPRPRPRPYWNPRP | -0.388 |
| RRIRHRPPRLPRPRPRPWLRPRP | -0.0716 |
| RRIRARPPRLPRPRPRPIYWPRP | 0.0177 |
| RRIRARPPRLPRPRPRPADQPRP | 0.755 |
| RRIRVRPPRLPRPRPRPRPFPRP | 0.351 |
| RRIRVRPPRLPRPRPRPELWPRP | 0.459 |
| RRIRQRPPRLPRPRPRPKHLPRP | 0.0736 |
| RRIRDRPPRLPRPRPRPESQPRP | -0.0206 |
| RRIRDRPPRLPRPRPRPIMPPRP | -0.0491 |
| RRIRRRPPRLPRPRPRPKAWPRP | 0.0767 |
| RRIRCRPPRLPRPRPRPDTIPRP | -0.738 |
| RRIRIRPPRLPRPRPRPYFYPRP | -0.469 |
| RRIRQRPPRLPRPRPRPPVHPRP | 0.164 |
| RRIRHRPPRLPRPRPRPRIIPRP | -1.44 |

| Sequence | shrunken log2 fold change |
| --- | --- |
| RRIRERPPRLPRPRPRPRKNPRP | -0.0182 |
| RRIRNRPPRLPRPRPRPIPAPRP | -0.0451 |
| RRIRIRPPRLPRPRPRPCELPRP | -0.254 |
| RRIRTRPPRLPRPRPRPTYAPRP | -0.0854 |
| RRIRGRPPRLPRPRPRPEWFPRP | 0.683 |
| RRIRKRPPRLPRPRPRPQTYPRP | -0.021 |
| RRIRVRPPRLPRPRPRPKWKPRP | -0.0377 |
| RRIRCRPPRLPRPRPRPWGMPRP | -0.16 |
| RRIRIRPPRLPRPRPRPDEDPRP | -0.00875 |
| RRIRGRPPRLPRPRPRPLAPPRP | 0.998 |
| RRIRGRPPRLPRPRPRPWWPPRP | 0.404 |
| RRIRYRPPRLPRPRPRPVVVPRP | 0.00571 |
| RRIRGRPPRLPRPRPRPNMMPRP | 0.0511 |
| RRIRARPPRLPRPRPRPKLAPRP | 0.555 |
| RRIRTRPPRLPRPRPRPVFFPRP | 0.0831 |
| RRIRERPPRLPRPRPRPYKGPRP | -0.0341 |
| RRIRFRPPRLPRPRPRPQYIPRP | -0.0295 |
| RRIRYRPPRLPRPRPRPIFAPRP | 0.159 |
| RRIRCRPPRLPRPRPRPNLNPRP | -0.575 |
| RRIRVRPPRLPRPRPRPPKLPRP | 0.0622 |
| RRIRCRPPRLPRPRPRPDQEPRP | 0.0455 |
| RRIRLRPPRLPRPRPRPNPWPRP | 0.0455 |
| RRIRQRPPRLPRPRPRPFELPRP | -0.113 |
| RRIRRRPPRLPRPRPRPWIWPRP | -0.282 |
| RRIRVRPPRLPRPRPRPHHCPRP | -0.74 |
